Laboratory results taken from patent US20140087995A1 (published 2014).
Numbered stars: 1 amine (or outer) side, 2 acyl side, 3 side chain; on linkers, the order of the positions; unused ones are H or OH. Bridge positions count the residues as written; N and C are the ends. Side chains are listed from the residue outwards. Ends that are not written are not given here. * marks the point of attachment. C20 diacid = O=C(O)CCCCCCCCCCCCCCCCCCC(=O)*; γGlu = O=C(O)[C@H](CCC(=O)[*:2])N[*:1]; AEEA = NCCOCCOCC(=O)O

B1: N^ε1-[2-[2-[2-[[(4S)-4-carboxy-4-(19-carboxynonadecanoylamino)butanoyl]amino]ethoxy]ethoxy]acetyl]-[Arg14,Arg17,Pro21,Pro27,Pro31]-h-amylin (peptide)
peptide: K([AEEA-γGlu-C20 diacid])CNTATCATQRLARFLRHSSPNFGAIPSSTPVGSNTY-NH2
modifications: disulfide 2-7; N-terminus assumed
SMILES: CC[C@H](C)[C@H](NC(=O)[C@H](C)NC(=O)CNC(=O)[C@H](Cc1ccccc1)NC(=O)[C@H](CC(N)=O)NC(=O)[C@@H]1CCCN1C(=O)[C@H](CO)NC(=O)[C@H](CO)NC(=O)[C@H](Cc1c[nH]cn1)NC(=O)[C@H](CCCNC(=N)N)NC(=O)[C@H](CC(C)C)NC(=O)[C@H](Cc1ccccc1)NC(=O)[C@H](CCCNC(=N)N)NC(=O)[C@H](C)NC(=O)[C@H](CC(C)C)NC(=O)[C@H](CCCNC(=N)N)NC(=O)[C@H](CCC(N)=O)NC(=O)[C@@H](NC(=O)[C@H](C)NC(=O)[C@@H]1CSSC[C@H](NC(=O)[C@@H](N)CCCCNC(=O)COCCOCCNC(=O)CC[C@H](NC(=O)CCCCCCCCCCCCCCCCCCC(=O)O)C(=O)O)C(=O)N[C@@H](CC(N)=O)C(=O)N[C@@H]([C@@H](C)O)C(=O)N[C@@H](C)C(=O)N[C@@H]([C@@H](C)O)C(=O)N1)[C@@H](C)O)C(=O)N1CCC[C@H]1C(=O)N[C@@H](CO)C(=O)N[C@@H](CO)C(=O)N[C@H](C(=O)N1CCC[C@H]1C(=O)N[C@H](C(=O)NCC(=O)N[C@@H](CO)C(=O)N[C@@H](CC(N)=O)C(=O)N[C@H](C(=O)N[C@@H](Cc1ccc(O)cc1)C(N)=O)[C@@H](C)O)C(C)C)[C@@H](C)O
notes: also called compound 64
B2: N^ε1-[2-[2-[2-[[(4S)-4-carboxy-4-(19-carboxynonadecanoylamino)butanoyl]amino]ethoxy]ethoxy]acetyl]-[Arg17,Pro21,Pro27,Pro28,Pro34]-h-amylin (peptide)
peptide: K([AEEA-γGlu-C20 diacid])CNTATCATQRLANFLRHSSPNFGAIPPSTNVGPNTY-NH2
modifications: disulfide 2-7; N-terminus assumed
SMILES: CC[C@H](C)[C@H](NC(=O)[C@H](C)NC(=O)CNC(=O)[C@H](Cc1ccccc1)NC(=O)[C@H](CC(N)=O)NC(=O)[C@@H]1CCCN1C(=O)[C@H](CO)NC(=O)[C@H](CO)NC(=O)[C@H](Cc1c[nH]cn1)NC(=O)[C@H](CCCNC(=N)N)NC(=O)[C@H](CC(C)C)NC(=O)[C@H](Cc1ccccc1)NC(=O)[C@H](CC(N)=O)NC(=O)[C@H](C)NC(=O)[C@H](CC(C)C)NC(=O)[C@H](CCCNC(=N)N)NC(=O)[C@H](CCC(N)=O)NC(=O)[C@@H](NC(=O)[C@H](C)NC(=O)[C@@H]1CSSC[C@H](NC(=O)[C@@H](N)CCCCNC(=O)COCCOCCNC(=O)CC[C@H](NC(=O)CCCCCCCCCCCCCCCCCCC(=O)O)C(=O)O)C(=O)N[C@@H](CC(N)=O)C(=O)N[C@@H]([C@@H](C)O)C(=O)N[C@@H](C)C(=O)N[C@@H]([C@@H](C)O)C(=O)N1)[C@@H](C)O)C(=O)N1CCC[C@H]1C(=O)N1CCC[C@H]1C(=O)N[C@@H](CO)C(=O)N[C@H](C(=O)N[C@@H](CC(N)=O)C(=O)N[C@H](C(=O)NCC(=O)N1CCC[C@H]1C(=O)N[C@@H](CC(N)=O)C(=O)N[C@H](C(=O)N[C@@H](Cc1ccc(O)cc1)C(N)=O)[C@@H](C)O)C(C)C)[C@@H](C)O
notes: also called compound 55
B3: N^ε1-[2-[2-[2-[[(4S)-4-carboxy-4-(19-carboxynonadecanoylamino)butanoyl]amino]ethoxy]ethoxy]acetyl]-[Arg17,Pro21,Pro27,Pro29,Pro31]-h-amylin (peptide)
peptide: K([AEEA-γGlu-C20 diacid])CNTATCATQRLANFLRHSSPNFGAIPSPTPVGSNTY-NH2
modifications: disulfide 2-7; N-terminus assumed
SMILES: CC[C@H](C)[C@H](NC(=O)[C@H](C)NC(=O)CNC(=O)[C@H](Cc1ccccc1)NC(=O)[C@H](CC(N)=O)NC(=O)[C@@H]1CCCN1C(=O)[C@H](CO)NC(=O)[C@H](CO)NC(=O)[C@H](Cc1c[nH]cn1)NC(=O)[C@H](CCCNC(=N)N)NC(=O)[C@H](CC(C)C)NC(=O)[C@H](Cc1ccccc1)NC(=O)[C@H](CC(N)=O)NC(=O)[C@H](C)NC(=O)[C@H](CC(C)C)NC(=O)[C@H](CCCNC(=N)N)NC(=O)[C@H](CCC(N)=O)NC(=O)[C@@H](NC(=O)[C@H](C)NC(=O)[C@@H]1CSSC[C@H](NC(=O)[C@@H](N)CCCCNC(=O)COCCOCCNC(=O)CC[C@H](NC(=O)CCCCCCCCCCCCCCCCCCC(=O)O)C(=O)O)C(=O)N[C@@H](CC(N)=O)C(=O)N[C@@H]([C@@H](C)O)C(=O)N[C@@H](C)C(=O)N[C@@H]([C@@H](C)O)C(=O)N1)[C@@H](C)O)C(=O)N1CCC[C@H]1C(=O)N[C@@H](CO)C(=O)N1CCC[C@H]1C(=O)N[C@H](C(=O)N1CCC[C@H]1C(=O)N[C@H](C(=O)NCC(=O)N[C@@H](CO)C(=O)N[C@@H](CC(N)=O)C(=O)N[C@H](C(=O)N[C@@H](Cc1ccc(O)cc1)C(N)=O)[C@@H](C)O)C(C)C)[C@@H](C)O
notes: also called compound 54
B4: N^ε1-[2-[2-[2-[[(4S)-4-carboxy-4-(19-carboxynonadecanoylamino)butanoyl]amino]ethoxy]ethoxy]acetyl]-[Arg17,Pro21,Pro27,Pro29,Pro34]-h-amylin (peptide)
peptide: K([AEEA-γGlu-C20 diacid])CNTATCATQRLANFLRHSSPNFGAIPSPTNVGPNTY-NH2
modifications: disulfide 2-7; N-terminus assumed
SMILES: CC[C@H](C)[C@H](NC(=O)[C@H](C)NC(=O)CNC(=O)[C@H](Cc1ccccc1)NC(=O)[C@H](CC(N)=O)NC(=O)[C@@H]1CCCN1C(=O)[C@H](CO)NC(=O)[C@H](CO)NC(=O)[C@H](Cc1c[nH]cn1)NC(=O)[C@H](CCCNC(=N)N)NC(=O)[C@H](CC(C)C)NC(=O)[C@H](Cc1ccccc1)NC(=O)[C@H](CC(N)=O)NC(=O)[C@H](C)NC(=O)[C@H](CC(C)C)NC(=O)[C@H](CCCNC(=N)N)NC(=O)[C@H](CCC(N)=O)NC(=O)[C@@H](NC(=O)[C@H](C)NC(=O)[C@@H]1CSSC[C@H](NC(=O)[C@@H](N)CCCCNC(=O)COCCOCCNC(=O)CC[C@H](NC(=O)CCCCCCCCCCCCCCCCCCC(=O)O)C(=O)O)C(=O)N[C@@H](CC(N)=O)C(=O)N[C@@H]([C@@H](C)O)C(=O)N[C@@H](C)C(=O)N[C@@H]([C@@H](C)O)C(=O)N1)[C@@H](C)O)C(=O)N1CCC[C@H]1C(=O)N[C@@H](CO)C(=O)N1CCC[C@H]1C(=O)N[C@H](C(=O)N[C@@H](CC(N)=O)C(=O)N[C@H](C(=O)NCC(=O)N1CCC[C@H]1C(=O)N[C@@H](CC(N)=O)C(=O)N[C@H](C(=O)N[C@@H](Cc1ccc(O)cc1)C(N)=O)[C@@H](C)O)C(C)C)[C@@H](C)O
notes: also called compound 56

biological target: T1, human amylin receptor (human calcitonin receptor co-expressed with RAMP-3; amylin 3(a) receptor) (human, UniProt P30988 25-474; O60896 24-148, limits assumed); assay: ratio of hCTR binding IC50 to hAmylin-R binding IC50 (reference: human calcitonin receptor)
T1 construct: whole, on cells; Used as cell membranes prepared from Amylin 3(a)/CRE-luc BHK cells (Assay V), not as intact cells; also called hAmylin-R; hAmylinR
T1 sequence (looked up) 1: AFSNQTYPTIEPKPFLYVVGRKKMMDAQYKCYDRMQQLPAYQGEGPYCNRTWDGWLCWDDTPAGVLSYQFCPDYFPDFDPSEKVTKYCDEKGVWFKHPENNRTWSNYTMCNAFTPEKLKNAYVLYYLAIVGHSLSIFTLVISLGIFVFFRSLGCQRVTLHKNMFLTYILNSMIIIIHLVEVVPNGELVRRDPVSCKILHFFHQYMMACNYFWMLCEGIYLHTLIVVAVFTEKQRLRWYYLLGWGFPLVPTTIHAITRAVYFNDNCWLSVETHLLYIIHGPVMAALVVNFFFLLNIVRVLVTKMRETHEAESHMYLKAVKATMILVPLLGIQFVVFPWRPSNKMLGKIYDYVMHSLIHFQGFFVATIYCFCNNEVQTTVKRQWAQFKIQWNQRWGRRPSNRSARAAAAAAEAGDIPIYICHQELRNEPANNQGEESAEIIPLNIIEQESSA
T1 sequence (looked up) 2: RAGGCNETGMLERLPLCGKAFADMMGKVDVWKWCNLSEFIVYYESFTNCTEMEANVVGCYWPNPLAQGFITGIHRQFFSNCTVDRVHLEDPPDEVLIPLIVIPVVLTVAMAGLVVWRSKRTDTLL
Method: The resulting pellet was resuspended, homogenized and centrifuged (20.000 rpm, 15 min) in a buffer containing 20 mM Na-HEPES and 0.1 mM EDTA (pH 7.4, buffer 2). The resulting pellet was resuspended in buffer 2 and protein concentration was measured (BCA protein Assay, Pierce). The homogenate was kept cold during the whole procedure. The membranes were kept at −80° C. until use. The assay was performed in a 384 well Optiplate (PerkinElmer) in a total volume of 40 ul. Membranes were mixed with SPA beads. Final concentration of membranes 35 ng/μL final and SPA beads was 0.05 mg/well. Test-compounds were dissolved in DMSO and further diluted in assay buffer (50 mM Hepes, pH 7.4, 1 mM CaCl2, 5 mM MgCl₂, 0.1% OA and 0.02% Tween20). […] The final mixture was incubated with shaking at 400 rpm for 120 min at 25° C. prior to centrifugation (1500 rpm, 10 min). Samples were analyzed on TopCounter™ (Packard). The IC₅₀ was calculated using (one site binding competition analysis) GraphPad Prism5 as a measure of receptor affinity.
Membranes were prepared in the following way; the cells were rinsed with PBS and incubated with Versene for approximately 5 min before harvesting. The cells were flushed with PBS and the cell-suspension was centrifuged for 5 min at 1000 rpm. Cells were homogenized (Ultrathurrax) in a buffer containing 20 mM Na-HEPES and 10 mM EDTA (pH 7.4) and centrifuged at 20.000 rpm for 15 min. The resulting pellet was resuspended, homogenized and centrifuged (20.000 rpm, 15 min) in a buffer containing 20 mM Na-HEPES and 0.1 mM EDTA (pH 7.4, buffer 2). The resulting pellet was resuspended in buffer 2 and protein concentration was measured (BCA protein Assay, Pierce). The homogenate was kept cold during the whole procedure. The membranes were kept at −80° C. until use. Assay was performed in a 384 well Optiplate (PerkinElmer) in a total volume of 40 ul. Membranes were mixed with SPA beads.

Binder	Ratio hCT/hAmylin binding
B1	126
B2	51.8
K([AEEA-γGlu-C20 diacid])CNTATCATQRLANFLRHSSPNFGAIPPSTPVGSNTY-NH2 (disulfide 2-7, also called compound 53)	104
B3	146
B4	42.6

biological target: T2, human calcitonin receptor (human, UniProt P30988 25-474); assay: SPA competition against 125I-calcitonin, membranes with human calcitonin receptor (Assay VII)
T2 construct: whole, on cells; Used as cell membranes prepared from the transfected BHK cells (Assay VII), not as intact cells; also called hCTR; hCT
T2 sequence (looked up): T1 sequence (looked up) 1
Procedure, shortened: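 BHK hCTR membranes 35 ng/μL + SPA beads 0.05 mg/well; buffer 50 mM Hepes pH 7.4, 1 mM CaCl2, 5 mM MgCl₂, 0.1% OA, 0.02% Tween20. 120 min, 25° C., shaking. Scintillation count; IC50 by one-site binding competition.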

Binder	IC50
B1	56 nM
B2	2.17 nM
K([AEEA-γGlu-C20 diacid])CNTATCATQRLANFLRHSSPNFGAIPPSTPVGSNTY-NH2 (disulfide 2-7, also called compound 53)	5.38 nM
B3	4.38 nM
B4	2.09 nM
